Measurements: US20220160843A1 (priority 2019, published 2022)

Columns and labels:
[1] = tested on: carbapenem-resistant P. aeruginosa strains; experiment: Resensitization of carbapenem-resistant clinical strains using carbapenems in combination with lysins; assay type: cell-based
Experimental: The checkerboard assays is based on a modification of the CLSI method for MIC determination by broth microdilution (26, 29). Checkerboards were constructed by first preparing columns of a 96-well polypropylene microtiter plate, in which each well had the same amount of antibiotic diluted 2-fold along the horizontal axis. […] Summation fractional inhibitory concentrations (ΣFICs) were calculated for each drug and the minimum ΣFIC value (ΣFICmin) was used to determine synergy. ΣFICs were calculated as follows: ΣFIC=FIC A+FIC B, where FIC A is the MIC of each antibiotic in the combination/MIC of each antibiotic alone, and FIC B is the MIC of each GN lysin in the combination/MIC of each GN lysin alone. The combination is considered synergistic when the ΣFIC is ≤0.5, strongly additive when the ΣFIC is >0.5 to <1, additive with the ΣFIC is 1−<2, and antagonistic when the ΣFIC is ≥2.
Up to seven carbapenem-resistant isolates were assessed. […] See Clinical and Laboratory Standards Institute (CLSI), CLSI. […] M100 Performance Standards for Antimicrobial Susceptibility Testing; 29th Edition. Clinical and Laboratory Standards Institute, Wayne, Pa.

human erythrocytes = assay type: cell-based
Experimental: The hemolytic activity of the GN lysins was measured as the amount of hemoglobin released by the lysis of human erythrocytes (30). Briefly, 3 ml of fresh human blood cells (hRBCs) obtained from pooled healthy donors (BioreclamationIVT) in a polycarbonate tube containing heparin was centrifuged at 1,000×g for 5 min at 4° C. The erythrocytes obtained were washed three times with phosphate-buffered saline (PBS) solution (pH 7.2) and resuspended in […]. […] Intact erythrocytes were pelleted by centrifugation at 1,000×g for 5 min at 4° C., and the supernatant was transferred to a new 96-well plate. The release of hemoglobin was monitored by measuring the absorbance at 570 nm.

[2] = tested on: P. aeruginosa strain ATCC 17647; experiment: Minimal Biofilm Eradicating Concentration (MBEC), Calgary Biofilm Device; assay type: cell-based, Pseudomonas aeruginosa; conditions: 24 h biofilm, 24 h treatment; minimum concentration removing >95% of biofilm biomass (crystal violet)
From the text: All samples were examined in triplicate.

[3] = tested on: carbapenem-resistant clinical strain, WC-452; experiment: Checkerboard assay to examine synergy with antibiotics in CAA/HuS; assay type: cell-based, P. aeruginosa
P. aeruginosa [4] = experiment: Minimal inhibitory concentration (MIC), modified CLSI broth microdilution in CAA or CAA/HuS; assay type: cell-based, Pseudomonas aeruginosa
P. aeruginosa [5] = experiment: Time-kill assay of GN lysin activity; assay type: cell-based, Pseudomonas aeruginosa; conditions: for Log10 CFU/mL T = 3 hr / Log10 CFU/mL T = l hr: lysin 10 μg/mL, T = 0 7.8; for Log10 CFU/mL T = 3 hr: buffer control 7.2, limit of detection 3.7; for Log10 CFU/mL T = l hr: buffer control 7.7
Experimental: All treatments were incubated at 37° C. with aeration.

[6] = HEPES buffer, ‡ indicates bactericidal activity

B1: GN123: Native lysin, GenBank YP_009217242.1, SEQ ID NO: 27 (protein)
chain: MTLLKKGDKGDAVKQLQQKLKDLGYTLGVDGNFGNGTDTVVRSFQTKMKLSVDGVVGNGTMSTIDSTLAGIKAWKTSVPFPATNKSRAMAMPTLTEIGRLTNVDPKLLATFCSIESAFDYTAKPYKPDGTVYSSAEGWFQFLDATWDDEVRKHGKQYSFPVDPGRSLRKDPRANGLMGAEFLKGNAAILRPVLGHEPSDTDLYLAHFMGAGGAKQFLMADQNKLAAELFPGPAKANPNIFYKSGNIARTLAEVYAVLDAKVAKHRA
modifications: Pseudomonas phage PhiPA3
GN123 Alone ([1]; isolate PA19, MIC of GN123 alone (imipenem checkerboard)): 8 µg/mL | GN123 Alone ([1]; isolate PA19, MIC of GN123 alone (meropenem checkerboard)): 8 µg/mL | GN123 Combination ([1]; isolate PA19, MIC of GN123 in combination with imipenem): 0.125 µg/mL | GN123 Combination ([1]; isolate PA19, MIC of GN123 in combination with meropenem): 0.25 µg/mL | FICI ([1]; isolate PA19, imipenem + GN123): 0.03 | FICI ([1]; isolate PA19, meropenem + GN123): 0.046 | GN123 Alone ([1]; isolate PA20, MIC of GN123 alone (imipenem checkerboard)): 16 µg/mL | GN123 Alone ([1]; isolate PA20, MIC of GN123 alone (meropenem checkerboard)): 16 µg/mL | GN123 Combination ([1]; isolate PA20, MIC of GN123 in combination with imipenem): 2 µg/mL | GN123 Combination ([1]; isolate PA20, MIC of GN123 in combination with meropenem): 1 µg/mL | FICI ([1]; isolate PA20, imipenem + GN123): 0.188 | FICI ([1]; isolate PA20, meropenem + GN123): 0.094 | GN123 Alone ([1]; isolate PA21, MIC of GN123 alone (imipenem checkerboard)): 8 µg/mL | GN123 Alone ([1]; isolate PA21, MIC of GN123 alone (meropenem checkerboard)): 8 µg/mL | GN123 Combination ([1]; isolate PA21, MIC of GN123 in combination with imipenem): 1 µg/mL | GN123 Combination ([1]; isolate PA21, MIC of GN123 in combination with meropenem): 1 µg/mL | FICI ([1]; isolate PA21, imipenem + GN123): 0.141 | FICI ([1]; isolate PA21, meropenem + GN123): 0.156 | GN123 Alone ([1]; isolate PA22, MIC of GN123 alone (imipenem checkerboard)): 16 µg/mL | GN123 Alone ([1]; isolate PA22, MIC of GN123 alone (meropenem checkerboard)): 16 µg/mL | GN123 Combination ([1]; isolate PA22, MIC of GN123 in combination with imipenem): 1 µg/mL | GN123 Combination ([1]; isolate PA22, MIC of GN123 in combination with meropenem): 1 µg/mL | FICI ([1]; isolate PA22, imipenem + GN123): 0.188 | FICI ([1]; isolate PA22, meropenem + GN123): 0.125 | GN123 Alone ([1]; isolate PA23, MIC of GN123 alone (imipenem checkerboard)): 8 µg/mL | GN123 Alone ([1]; isolate PA23, MIC of GN123 alone (meropenem checkerboard)): 8 µg/mL | GN123 Combination ([1]; isolate PA23, MIC of GN123 in combination with imipenem): 2 µg/mL | GN123 Combination ([1]; isolate PA23, MIC of GN123 in combination with meropenem): 1 µg/mL | FICI ([1]; isolate PA23, imipenem + GN123): 0.281 | FICI ([1]; isolate PA23, meropenem + GN123): 0.156 | GN123 Alone ([1]; isolate PA24, MIC of GN123 alone (imipenem checkerboard)): 16 µg/mL | GN123 Alone ([1]; isolate PA24, MIC of GN123 alone (meropenem checkerboard)): 16 µg/mL | GN123 Combination ([1]; isolate PA24, MIC of GN123 in combination with imipenem): 2 µg/mL | GN123 Combination ([1]; isolate PA24, MIC of GN123 in combination with meropenem): 0.5 µg/mL | FICI ([1]; isolate PA24, imipenem + GN123): 0.188 | FICI ([1]; isolate PA24, meropenem + GN123): 0.094 | GN123 Alone ([1]; isolate WC-452, MIC of GN123 alone (imipenem checkerboard)): 16 µg/mL | GN123 Alone ([1]; isolate WC-452, MIC of GN123 alone (meropenem checkerboard)): 16 µg/mL | GN123 Combination ([1]; isolate WC-452, MIC of GN123 in combination with imipenem): 2 µg/mL | GN123 Combination ([1]; isolate WC-452, MIC of GN123 in combination with meropenem): 1 µg/mL | FICI ([1]; isolate WC-452, imipenem + GN123): 0.188 | FICI ([1]; isolate WC-452, meropenem + GN123): 0.125 | resensitization of carbapenem-resistant isolates to IPM and MEM ([1]; synergistic combinations with imipenem or meropenem, breakpoints ≤2 sensitive, 4 intermediate, ≥8 resistant): reductions of IPM and MEM MICS to below breakpoint values | hemolytic activity (human erythrocytes): no hemolytic activity whatsoever | MBEC [2]: 4 µg/mL | FICI, Fosfomycin ([3]; lysin + fosfomycin): 0.250 | FICI, Gentamicin ([3]; lysin + gentamicin): 0.375 | FICI, Imipenem ([3]; lysin + imipenem): 0.188 | FICI, Meropenem ([3]; lysin + meropenem): 0.125 | FICI, Piperacillin ([3]; lysin + piperacillin): 0.500 | MIC (μg/mL) in CAA (P. aeruginosa [4]; CAA media): 2 µg/mL | MIC (μg/mL in CAA/HuS) (P. aeruginosa [4]; CAA supplemented with 25% human serum): 128 µg/mL | bactericidal activity in the time-kill assay format (P. aeruginosa [5]; 3-hour timepoint, 10 μg/mL, in either CAA/HuS or HEPES buffer): bactericidal activity | Log10 CFU/mL T = 3 hr (P. aeruginosa [5]; CAA/HuS, ‡ indicates bactericidal activity): <3.7‡ Log10 CFU/mL | Log10 CFU/mL T = l hr (P. aeruginosa [5]; CAA/HuS): 6.7 Log10 CFU/mL | Log10 CFU/mL T = 3 hr (P. aeruginosa [5]; [6]): <3.7‡ Log10 CFU/mL | Log10 CFU/mL T = l hr (P. aeruginosa [5]; [6]): 5.6 Log10 CFU/mL
